Test results from the Immune Epitope Database (IEDB).

Columns and labels:
[1] = target: HLA-C*14:02; assay: IEDB peptide-MHC binding, purified MHC/direct/fluorescence; filed as Kd, often an IC50 or EC50 that approximates it; ≥ and ≤ were set here for values at or beyond the usual limits of such assays; settings: source organism: Escherichia coli O139:H28 str. E24377A
[2] = target: HLA-A*26:01; assay: IEDB peptide-MHC binding, purified MHC/competitive/fluorescence; filed as Kd, often an IC50 or EC50 that approximates it; ≥ and ≤ were set here for values at or beyond the usual limits of such assays; settings: source organism: Escherichia coli O139:H28 str. E24377A
[3] = target: HLA-B*07:02; assay: IEDB peptide-MHC binding, purified MHC/competitive/fluorescence; ≥ and ≤ were set here for values at or beyond the usual limits of such assays
[4] = target: HLA-A*02:01; assay: as above; settings: source organism: Zaire ebolavirus
[5] = target: HLA-A*11:01; assay: as above
[6] = target: HLA-A*03:01; assay: as above
[7] = target: HLA-A*02:01; assay: IEDB peptide-MHC binding, purified MHC/competitive/radioactivity; filed as Kd, often an IC50 or EC50 that approximates it; ≥ and ≤ were set here for values at or beyond the usual limits of such assays
[8] = target: HLA-A*02:03; assay: as above
[9] = target: HLA-A*02:17; assay: as above
[10] = target: HLA-B*08:01; assay: as above; settings: source organism: Dengue virus 3 Sri Lanka/1266/2000
[11] = target: HLA-A*01:01; assay: IEDB peptide-MHC binding, purified MHC/direct/fluorescence; filed as Kd, often an IC50 or EC50 that approximates it; ≥ and ≤ were set here for values at or beyond the usual limits of such assays; settings: source organism: Vibrio vulnificus
[12] = target: HLA-A*02:01; assay: as above; settings: source organism: Vibrio vulnificus
[13] = target: HLA-A*03:01; assay: as above; settings: source organism: Vibrio vulnificus
[14] = target: HLA-A*11:01; assay: as above; settings: source organism: Vibrio vulnificus
[15] = target: HLA-A*26:01; assay: as above; settings: source organism: Vibrio vulnificus
[16] = target: HLA-A*31:01; assay: as above; settings: source organism: Vibrio vulnificus
[17] = target: HLA-A*69:01; assay: as above; settings: source organism: Vibrio vulnificus
[18] = target: HLA-B*07:02; assay: as above; settings: source organism: Vibrio vulnificus
[19] = target: HLA-B*08:01; assay: as above; settings: source organism: Vibrio vulnificus
[20] = target: HLA-B*15:01; assay: as above; settings: source organism: Vibrio vulnificus
[21] = target: HLA-B*27:05; assay: as above; settings: source organism: Vibrio vulnificus
[22] = target: HLA-B*35:01; assay: as above; settings: source organism: Vibrio vulnificus
[23] = target: HLA-B*40:01; assay: as above; settings: source organism: Vibrio vulnificus
[24] = target: HLA-B*44:02; assay: as above; settings: source organism: Vibrio vulnificus
[25] = target: HLA-B*58:01; assay: as above; settings: source organism: Vibrio vulnificus
[26] = target: HLA-A*02:06; assay: IEDB peptide-MHC binding, purified MHC/competitive/radioactivity; filed as Kd, often an IC50 or EC50 that approximates it; ≥ and ≤ were set here for values at or beyond the usual limits of such assays
[27] = target: HLA-A*26:01; assay: as above; settings: source organism: Dengue virus 3 Martinique/1243/1999
[28] = target: HLA-A*68:02; assay: as above; settings: source organism: Dengue virus 3 Martinique/1243/1999
[29] = target: HLA-B*51:01; assay: as above; settings: source organism: Dengue virus 3 Martinique/1243/1999
[30] = target: HLA-A*11:01; assay: IEDB peptide-MHC binding, purified MHC/competitive/fluorescence; filed as Kd, often an IC50 or EC50 that approximates it; ≥ and ≤ were set here for values at or beyond the usual limits of such assays; settings: source organism: Influenza A virus (A/swine/Hannover/1/1981(H1N1))
[31] = target: HLA-A*24:02; assay: IEDB peptide-MHC binding, purified MHC/competitive/fluorescence; ≥ and ≤ were set here for values at or beyond the usual limits of such assays
[32] = source organism: Zaire ebolavirus
[33] = source organism: Dengue virus 3 Sri Lanka/1266/2000
[34] = source organism: Dengue virus 1 Singapore/S275/1990
[35] = source organism: Dengue virus 1 Brazil/97-11/1997
[36] = source organism: Dengue virus 3 Martinique/1243/1999
[37] = source organism: Dengue virus 3 China/80-2/1980

## ACPDNLLRL
[1]
  Kd: 1.1 µM
[2]
  Kd: ≥ 20 µM

## ADDETSSLP
[3]; [32]
  IC50: ≥ 174 µM

## ATAHGSTLA
[4]
  IC50: 54.3 µM
[5]; [32]
  IC50: 43.1 µM

## AVLYYHMMK
[4]
  IC50: ≥ 311 µM
[6]; [32]
  IC50: 1.97 µM
[5]; [32]
  IC50: 0.288 µM

## CLMMILPAA
[7]; [33]
  Kd: 0.00121 µM
[8]; [33]
  Kd: 0.00105 µM
[9]; [33]
  Kd: 0.438 µM
[10]
  Kd: 1.07 µM

## DFPIFNQRY
[11]
  Kd: ≥ 20 µM
[12]
  Kd: ≥ 20 µM
[13]
  Kd: ≥ 20 µM
[14]
  Kd: ≥ 20 µM
[15]
  Kd: 3.83 µM
[16]
  Kd: ≥ 20 µM
[17]
  Kd: ≥ 20 µM
[18]
  Kd: ≥ 20 µM
[19]
  Kd: ≥ 20 µM
[20]
  Kd: ≥ 20 µM
[21]
  Kd: ≥ 20 µM
[22]
  Kd: 0.118 µM
[23]
  Kd: ≥ 20 µM
[24]
  Kd: ≥ 20 µM
[25]
  Kd: ≥ 20 µM

## FMTATPPGSV
[7]; [34]
  Kd: 0.0728 µM
[8]; [35]
  Kd: 0.00167 µM
[26]; [35]
  Kd: 0.671 µM
[9]; [34]
  Kd: 3.1 µM

## FTMGVLCLAI
[8]; [36]
  Kd: 0.00925 µM
[26]; [36]
  Kd: 0.00539 µM
[9]; [37]
  Kd: 0.132 µM
[27]
  Kd: 1.65 µM
[28]
  Kd: 0.0111 µM
[29]
  Kd: 8.62 µM

## FVFTLTVPSER
[30]
  Kd: 2.84 µM

## GTSNRTPTV
[4]
  IC50: 1.3 µM
[6]; [32]
  IC50: 57.2 µM
[5]; [32]
  IC50: ≥ 128 µM

## IFSAWISHR
[6]; source organism: Variola virus
  IC50: 1.01 µM
[5]; source organism: Variola virus
  IC50: ≥ 70.7 µM
[31]; source organism: Variola virus
  IC50: 0.0409 µM
[3]; source organism: Variola virus
  IC50: ≥ 577 µM

## IVLEFFMMV
[26]; [36]
  Kd: 0.0317 µM
[9]; [37]
  Kd: 0.131 µM
[28]
  Kd: 0.558 µM

## IYIEGLMHN
[6]; [32]
  IC50: ≥ 211 µM
[5]; [32]
  IC50: 36.1 µM
[31]; [32]
  IC50: 2.63 µM
